Target: Lip-NKD-HisC (human (identical sequence in mouse and human)) (UniProt Q969G9)
Test: aggregation and co-aggregation assay read by PAGE; purified proteins in 15 mM acetate, 150 mM NaCl, pH 5.0 mixed in different ratios; after 10 min 1 M Tris-HCl pH 8.0 added to 200 mM; after 20 min boiled 10 min in LDS sample buffer; PAGE under denaturing and reducing conditions

Sequence of Lip-NKD-HisC (human (identical sequence in mouse and human)) (Q969G9 whole entry): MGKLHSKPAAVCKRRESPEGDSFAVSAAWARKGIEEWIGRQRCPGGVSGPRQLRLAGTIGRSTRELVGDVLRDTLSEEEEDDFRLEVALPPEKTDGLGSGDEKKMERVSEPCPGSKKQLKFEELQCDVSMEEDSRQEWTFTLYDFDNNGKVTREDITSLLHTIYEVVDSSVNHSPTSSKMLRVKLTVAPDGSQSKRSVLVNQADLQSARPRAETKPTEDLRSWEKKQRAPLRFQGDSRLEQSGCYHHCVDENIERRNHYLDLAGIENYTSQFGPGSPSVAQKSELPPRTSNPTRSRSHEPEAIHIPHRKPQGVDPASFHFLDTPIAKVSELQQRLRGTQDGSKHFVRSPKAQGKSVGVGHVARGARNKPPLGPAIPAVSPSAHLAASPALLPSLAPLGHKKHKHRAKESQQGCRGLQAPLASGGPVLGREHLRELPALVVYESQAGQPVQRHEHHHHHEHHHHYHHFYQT

molecules per core (molecules per core): < 4
B1: MBP-Axin2-HisC (domain or fragment)
chain: KHVHHHYIHHHA
